Data: patent US20250326851A1 (Bayer, published 2025)
Values joined by “and” are separate entries in the source; they are usually repeats but may differ in a detail not shown here. Identical values can stand only once.

T1: mouse CCR8 on HEK293 cells (mouse, UniProt P56484 1-353)
T1 construct: whole, on cells; also called murine CCR8; murine CCR8-transfected HEK293 cells
T1 sequence (looked up): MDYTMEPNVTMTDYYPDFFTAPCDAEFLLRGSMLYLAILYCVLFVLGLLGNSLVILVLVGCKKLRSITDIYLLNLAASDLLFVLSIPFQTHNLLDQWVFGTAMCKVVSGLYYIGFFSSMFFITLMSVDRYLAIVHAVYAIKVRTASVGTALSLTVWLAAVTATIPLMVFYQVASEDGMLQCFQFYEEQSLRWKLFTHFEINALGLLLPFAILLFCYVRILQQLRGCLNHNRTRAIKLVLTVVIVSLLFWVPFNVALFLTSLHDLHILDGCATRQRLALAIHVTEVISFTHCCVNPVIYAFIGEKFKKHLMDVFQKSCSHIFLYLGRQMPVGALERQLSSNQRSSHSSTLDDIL

T2: Mouse FcRn (mouse, UniProt Q61559 22-297; P01887 21-119)
T2 construct: also called mFcRn; murine FcRn
T2 sequence (looked up) 1: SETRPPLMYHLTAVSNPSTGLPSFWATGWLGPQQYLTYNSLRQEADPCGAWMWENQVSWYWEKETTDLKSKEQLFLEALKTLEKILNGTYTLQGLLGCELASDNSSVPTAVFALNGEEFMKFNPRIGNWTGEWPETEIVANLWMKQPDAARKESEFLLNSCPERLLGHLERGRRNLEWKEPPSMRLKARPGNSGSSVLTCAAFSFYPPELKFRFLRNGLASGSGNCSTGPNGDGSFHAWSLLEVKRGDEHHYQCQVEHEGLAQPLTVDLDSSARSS
T2 sequence (looked up) 2: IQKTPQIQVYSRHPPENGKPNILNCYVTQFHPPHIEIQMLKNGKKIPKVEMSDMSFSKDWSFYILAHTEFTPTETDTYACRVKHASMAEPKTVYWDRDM

T3: Mouse FcγRIV/CD16-2 (mouse, UniProt A0A0B4J1G0 21-203)
T3 construct: also called mFcγR variant
T3 sequence: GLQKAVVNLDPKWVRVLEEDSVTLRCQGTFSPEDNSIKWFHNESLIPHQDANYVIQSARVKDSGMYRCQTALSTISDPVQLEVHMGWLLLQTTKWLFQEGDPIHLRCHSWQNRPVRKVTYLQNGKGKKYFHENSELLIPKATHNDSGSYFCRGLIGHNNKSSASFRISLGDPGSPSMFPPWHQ

B1: TPP-23411 (afucosylated) (antibody, human IgG1, lambda, V domains shown)
VH: EVQLLESGGGLVQPGGSLRLSCAASGFTFSSYGMHWVRQAPGKGLEWVSAINWNGGSTGYADSVKGRFTISRDNSKNTLYLQMNSLRAEDTAVYYCARGHHSGYDGRFFDYWGQGTLVTVSS
VL: QSVLTQPPSVSGAPGQRVTISCTGSSSNIGAGYNVHWYQQLPGTAPKLLIYTNNRRPSGVPDRFSGSKSGTSASLAISGLRSEDEADYYCAAWDASLSGWVFGGGTKLTVLG
modifications: afucosylated Fc glycan
notes: Fully human IgG1 lambda; In the ADA bridging assay it was biotinylated or SULFO-tagged; also called 21360-hIgG1wtlambda; anti-human CCR8 antibody hIgG1 isotype (afucosylated)
B2: TPP-23411 (wild-type) (antibody, human IgG1, lambda, V domains shown)
VH: B1 VH
VL: B1 VL
modifications: conventional (fucosylated) glycosylation
B3: TPP-15285 (normal half-life) (antibody, V domains shown)
VH: EVQLLESGGGLVQPGGSLRLSCAASGFTFSDYGVHWVRQAPGKGLEWVSGVSWNGSRTHYADSVKGRFTISRDNSKNTLYLQMNSLRAEDTAVYYCVTRGAWGQGTLVTVSS
VL: not shown
notes: Anti-mouse CCR8 antibody, human VH/VL chimerized to mIgG2a (lambda)
B4: TPP-29338 (short half-life) (antibody, mouse IgG2a)
heavy: EVQLLESGGGLVQPGGSLRLSCAASGFTFSDYGVHWVRQAPGKGLEWVSGVSWNGSRTHYADSVKGRFTISRDNSKNTLYLQMNSLRAEDTAVYYCVTRGAWGQGTLVTVSSAKTTAPSVYPLAPVCGDTTGSSVTLGCLVKGYFPEPVTLTWNSGSLSSGVHTFPAVLQSDLYTLSSSVTVTSSTWPSQSITCNVAHPASSTKVDKKIEPRGPTIKPCPPCKCPAPNLLGGPSVFIFPPKIKDVLMISLSPIVTCVVVDVSEDDPDVQISWFVNNVEVHTAQTQTHREDYNSTLRVVSALPIQANDWMSGKEFKCKVNNKDLPAPIERTISKPKGSVRAPQVYVLPPPEEEMTKKQVTLTCMVTDFMPEDIYVEWTNNGKTELNYKNTEPVLDSDGSYFMYSKLRVEKKNWVERNSYSCSVVHEGLAQHHTTKSFSRTPGK
light: QSVLTQPPSASGTPGQRVTISCSGSSFNIGSHFVYWYQQLPGTAPKLLIYKNNQRPSGVPDRFSGSKSGTSASLAISGLRSEDEADYYCAAWDDSLNGPVFGGGTKLTVLGQPKSSPSVTLFPPSSEELETNKATLVCTITDFYPGVVTVDWKVDGTPVTQGMETTQPSKQSNNKYMASSYLTLTARAWERHSSYSCQVTHEGHTVEKSLSRADCS

Assays:
human CCR8 [1] = biological target: T4, human CCR8 (human, UniProt P51685 1-355); experiment: flow cytometry using HEK293 cells, 0.0046 to 10 µg/mL (selectivity study)
T4 construct: whole, on cells; Also used for summary sentences that name no form; also called hCCR8; HEK-hCCR8

human CCR8 [2] = biological target: T4, human CCR8; experiment: cell-based or functional assay
human CCR8 [3] = biological target: T4, human CCR8; experiment: cell-based or functional assay; remark: listed apart in the source
[4] = biological target: T1, mouse CCR8 on HEK293 cells; experiment: flow cytometry on murine CCR8-transfected HEK293 cells
Description: (§1) The binding properties of murine surrogate antibodies were assessed using flow cytometry on HEK293 cells ectopically expressing murine CCR8.

[5] = biological target: T1, mouse CCR8 on HEK293 cells; experiment: cell-based or functional assay
[6] = biological target: T1, mouse CCR8 on HEK293 cells; experiment: cell-based or functional assay; remark: listed apart in the source
Mouse FcRn = biological target: T2, Mouse FcRn; experiment: SPR
Description: (§2) The binding of murine surrogate antibodies to mouse Fc receptor variants (mFcγR and mFcRn) was analyzed by SPR.

Mouse FcγRIV/CD16-2 = biological target: T3, Mouse FcγRIV/CD16-2; experiment: SPR
Description: as §2

[7] = biological target: T1, mouse CCR8 on HEK293 cells; experiment: flow cytometry, mouse CCR8-expressing HEK293 cells; reference TPP-15285
Description: as §1

Mouse FcγRIIIB/CD16b = biological target: T5, Mouse FcγRIIIB/CD16b (mouse); experiment: SPR; approximation, saturation not reached
T5 construct: The printed name is that of a human receptor; kept as printed; also called mFcγR variant
Description: as §2

[8] = biological target: T6, Mouse FcγRIIA/CD32a (R167) (mouse); experiment: SPR; approximation, saturation not reached
T6 construct: The printed name is that of a human receptor allotype; kept as printed; also called mFcγR variant
Description: as §2

T4 sequence (P51685 whole entry): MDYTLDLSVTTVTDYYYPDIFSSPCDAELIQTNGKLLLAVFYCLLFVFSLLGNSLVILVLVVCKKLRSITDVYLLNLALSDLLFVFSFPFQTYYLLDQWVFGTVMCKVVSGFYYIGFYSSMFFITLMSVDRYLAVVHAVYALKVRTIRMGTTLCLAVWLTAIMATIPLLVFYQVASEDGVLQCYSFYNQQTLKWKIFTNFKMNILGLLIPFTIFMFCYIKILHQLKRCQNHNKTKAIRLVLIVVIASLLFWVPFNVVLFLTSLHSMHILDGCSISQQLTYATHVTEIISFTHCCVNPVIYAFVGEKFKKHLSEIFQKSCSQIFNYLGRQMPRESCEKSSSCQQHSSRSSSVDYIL

Row | Binder | EC50 (human CCR8 [1]) [µg/mL] | ADCC EC50; HEK-hCCR8 target cells, NK92V effector cells (human CCR8 [2]) [nM] | ADCC EC50; Tregs, donor 1100 (85.0% CCR8 expression), NK92V effector cells (human CCR8 [2]) [nM] | ADCC EC50; Tregs, donor 1163 (31.4% CCR8 expression), NK92V effector cells (human CCR8 [2]) [nM] | ADCP EC50; Tregs, donor 1100 (63% CCR8 expression), human M2c macrophages (human CCR8 [3]) [nM] | ADCP EC50; Tregs, donor 1163 (40% CCR8 expression), human M2c macrophages (human CCR8 [3]) [nM] | EC50 [4] | cumulative ADCP EC50 (ng/mL), 4 hours; mouse CCR8-expressing HEK293 cells, mouse M2 macrophages [5] [ng/mL] | cumulative ADCP EC50 (ng/mL), 12 hours; mouse CCR8-expressing HEK293 cells, mouse M2 macrophages [5] [ng/mL] | cumulative ADCP EC50 (pM), 4 hours; mouse CCR8-expressing HEK293 cells, mouse M2 macrophages [5] [pM] | cumulative ADCP EC50 (pM), 12 hours; mouse CCR8-expressing HEK293 cells, mouse M2 macrophages [5] [pM] | ADCC EC50 (ng/mL) at 20 hours; mouse CCR8-expressing HEK293 cells, mouse NK cells [6] [ng/mL] | ADCC EC50 (pM) at 20 hours; mouse CCR8-expressing HEK293 cells, mouse NK cells [6] [pM] | binding result (Mouse FcRn) | Kd (Mouse FcγRIV/CD16-2) [nM] | fold higher affinity compared to TPP-15825 [7] [fold] | Kd (Mouse FcγRIIIB/CD16b) [nM] | Kd [8] [nM]
1 | B1 | 0.129 | 0.0128 | 0.0281 | 0.0559 | 0.143 | 0.44 |  |  |  |  |  |  |  |  |  |  |  | 
2 | B2 |  | 0.0702 |  |  | 0.155 | 0.148 |  |  |  |  |  |  |  |  |  |  |  | 
3 | B3 |  |  |  |  |  |  | 12.5 nM and 1.8 µg/mL | 54.5 | 22.7 | 380 | 158 | 32.6 | 227 |  |  |  |  | 
4 | B4 |  |  |  |  |  |  | 0.495 nM and 0.071 µg/mL | 74.3 | 28.3 | 518 | 197 | 1.33 | 9.28 | no binding (tested: 15.6 to 2,000 nM (FcRn assay)) | 1400 | 10 | ~19000 | ~12000
